{"source": "paper PMC8636100", "about": "“Peptibody Based on FGFR1-Binding Peptides From the FGF4 Sequence as a Cancer-Targeting Agent” (Frontiers in Pharmacology, 2021)", "binders": {"B1": {"name": "PepSpot peptide no. 15 of FGF4 (peptide)", "peptide": "SRFFVAMSSKGKLYG", "modifications": "also: covalently bound to cellulose-β-alanine membrane", "notes": "also called peptide 15; source: synthetic peptide on cellulose membrane (PepSpot, JPT, Berlin)"}, "B2": {"name": "PepSpot peptide no. 21 of FGF4 (peptide)", "peptide": "RVSPTMKVTHFLPRL", "modifications": "also: covalently bound to cellulose-β-alanine membrane", "notes": "also called peptide 21; source: synthetic peptide on cellulose membrane (PepSpot, JPT, Berlin)"}, "B3": {"name": "PepSpot peptide no. 20 of FGF4 (peptide)", "peptide": "KNGKTKKGNRVSPTM", "modifications": "also: covalently bound to cellulose-β-alanine membrane", "notes": "source: synthetic peptide on cellulose membrane (PepSpot, JPT, Berlin)"}, "B4": {"name": "PepSpot peptide no. 19 of FGF4 (peptide)", "peptide": "KYPGMFIALSKNGKT", "modifications": "also: covalently bound to cellulose-β-alanine membrane", "notes": "also called peptide 19; source: synthetic peptide on cellulose membrane (PepSpot, JPT, Berlin)"}, "B5": {"name": "PepSpot peptide no. 10 of FGF4 (peptide)", "peptide": "LRRLYCNVGIGFHLQ", "modifications": "also: covalently bound to cellulose-β-alanine membrane", "notes": "also called peptide F4_3; 4_3; source: synthetic peptide on cellulose membrane (PepSpot, JPT, Berlin)"}, "B6": {"name": "peptibodyF4_3 (Fc fusion)", "chain": "GLRRLYCNVGIGFHLQ", "notes": "additional glycine residue as a spacer between the Fc domain and the targeting peptide; peptide F4_3, FGF4 residues 83-97; Peptide fused at the C-terminus of the Fc domain of human IgG1 (vector pLEV113); not shown: Fc (human IgG1), N-terminal, kept"}, "B7": {"name": "peptibodyF4_1 (Fc fusion)", "chain": "GIALSKNGKTKKGNRVSPTMKVTHFLPRL", "notes": "additional glycine residue as a spacer between the Fc domain and the targeting peptide; peptide F4_1, FGF4 residues 179-206; Peptide fused at the C-terminus of the Fc domain of human IgG1 (vector pLEV113); Labelled with DyLite650 for flow cytometry; not shown: Fc (human IgG1), N-terminal, kept"}, "B8": {"name": "FGF4 (ligand, UniProt P08620 31-206, looked up)", "chain": "APTAPNGTLEAELERRWESLVALSLARLPVAAQPKEAAVQSGAGDYLLGIKRLRRLYCNVGIGFHLQALPDGRIGGAHADTRDSLLELSPVERGVVSIFGVASRFFVAMSSKGKLYGSPFFTDECTFKEILLPNNYNAYESYKYPGMFIALSKNGKTKKGNRVSPTMKVTHFLPRL", "notes": "FGF4; Denatured by SDS-PAGE and held on PVDF in the overlay; native analyte in SPR; also called recombinant FGF4; fibroblast growth factor 4; source: recombinant, provided by Marta Minkiewicz and Martyna Sochacka from Protein Engineering Group"}, "B9": {"name": "chymotryptic peptide of FGF4, region 136–150 (peptide)", "peptide": "FVAMSSKGKLYGSPF", "notes": "FGF4 residues 136-150; also called peptide F4_2; 4_2; source: digest of recombinant FGF4 with immobilized bovine chymotrypsin"}, "B10": {"name": "chymotryptic peptide of FGF4, region 179–206 (peptide)", "peptide": "IALSKNGKTKKGNRVSPTMKVTHFLPRL", "notes": "FGF4 residues 179-206; also called peptide F4_1; 4_1; source: digest of recombinant FGF4 with immobilized bovine chymotrypsin"}}, "note": "No end group written: not given here.", "data": [{"target": "T1, extracellular domain (ECD) of FGFR1 fused to the Fc domain of human IgG1 (UniProt P11362 22-376, HiLyte488 dye (labelled form, used for the membrane overlay of FGFs and the PepSpot assay))", "T1 construct": "FGFR1 (fibroblast growth factor receptor 1), extracellular domain; Unlabelled in the pull-down (held on Protein A resin) and in SPR (amine-coupled); also called FGFR1-Fc; source: recombinant, produced as described previously (Sokolowska-Wedzina et al., 2014)", "T1 sequence (looked up)": "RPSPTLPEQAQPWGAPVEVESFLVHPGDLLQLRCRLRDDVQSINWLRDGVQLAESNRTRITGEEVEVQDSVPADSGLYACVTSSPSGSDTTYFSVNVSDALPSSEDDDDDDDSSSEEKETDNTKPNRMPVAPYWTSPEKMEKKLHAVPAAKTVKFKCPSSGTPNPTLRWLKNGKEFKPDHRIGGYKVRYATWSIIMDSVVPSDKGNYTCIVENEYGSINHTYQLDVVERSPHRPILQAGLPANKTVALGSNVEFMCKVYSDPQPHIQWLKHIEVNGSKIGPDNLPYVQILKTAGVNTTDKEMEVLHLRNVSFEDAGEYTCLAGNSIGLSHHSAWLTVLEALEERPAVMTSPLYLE", "assay": "peptide or protein array; PepSpot: 15-residue peptides spanning FGF4 covalently bound to a cellulose membrane; blocked with 3% BSA in TBS-T; probed with HiLyte488-labelled FGFR1-Fc or Fc domain (0.1 µg/ml in blocking buffer) overnight at 4°C", "conditions": "both partners purified", "values": [{"binder": "B1", "binding result": "binds"}, {"binder": "B2", "binding result": "binds"}, {"binder": "B3", "binding result": "binds"}, {"binder": "B4", "binding result": "binds"}, {"binder": "B5", "binding result": "binds"}]}, {"target": "T1, extracellular domain (ECD) of FGFR1 …", "assay": "SPR; Biacore 3000, 25°C, PBS with 0.05% Tween20, 0.1% BSA, 0.02% NaN3, pH 7.4; FGFR1 ECD-Fc amine-coupled on CM5 at 8800 RU; peptibodies 0.15-4.8 μM or FGF4 75-600 nM injected at 30 μl/min; steady-state affinity analysis for the peptibodies", "conditions": "both partners purified", "units": {"Kd": "nM"}, "values": [{"binder": "B6", "Kd": 1090}, {"binder": "B7", "Kd": 2990}, {"binder": "B8", "Kd": 65.7}]}, {"target": "T1, extracellular domain (ECD) of FGFR1 …", "assay": "affinity purification with mass spectrometry; chymotryptic peptides of FGF4 incubated 1 h at 4°C with ECD_FGFR1-Fc or, in parallel, Fc domain immobilized on rProtein A Fast Flow resin; washed (0.1 M NaCl, phosphate); eluted with 0.1 M sodium citrate pH 3.5; peptides identified by MS", "conditions": "both partners purified", "values": [{"binder": "B9", "binding result": "binds"}, {"binder": "B10", "binding result": "binds"}]}]}
